Experimental data as given in patent US20130330346A1 (Novartis, published 2013).
Read-outs that look alike come from different tables or passages of the source. Ends that are not written are not given here.

T1: Human 1to19 peptide (human)
T1 construct: First 19 N-terminal amino acids of human CXCR2, captured on neutravidin; also called human CXCR2 1 to19 peptide; 1-19 Nter peptide
T1 peptide: MEDFNMESDSFEDFWKGED-biotin

T2: Human CXCR2 (human, UniProt P25025 1-360)
T2 construct: Some cell lines carry an N-terminal 3xHA tag; also called hCXCR2; huCXCR2
T2 sequence: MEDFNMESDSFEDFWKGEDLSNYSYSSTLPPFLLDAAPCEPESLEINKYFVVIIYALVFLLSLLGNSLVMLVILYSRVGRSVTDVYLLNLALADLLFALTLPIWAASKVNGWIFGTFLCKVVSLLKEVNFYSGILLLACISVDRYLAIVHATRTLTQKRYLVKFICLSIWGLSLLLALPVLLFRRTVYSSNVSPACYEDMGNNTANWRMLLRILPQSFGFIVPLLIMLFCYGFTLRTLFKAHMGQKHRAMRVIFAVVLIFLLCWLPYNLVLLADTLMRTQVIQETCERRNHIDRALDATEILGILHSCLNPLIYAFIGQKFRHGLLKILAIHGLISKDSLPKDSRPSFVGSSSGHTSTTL

T3: Cynomolgus CXCR2 (cynomolgus, UniProt Q28519 3-353 (rhesus entry))
T3 construct: On transfected HEK293T or RBL-2H3 cells; native on cynomolgus neutrophils in the WBSC assay; also called cCXCR2; cynoCXCR2
T3 chain: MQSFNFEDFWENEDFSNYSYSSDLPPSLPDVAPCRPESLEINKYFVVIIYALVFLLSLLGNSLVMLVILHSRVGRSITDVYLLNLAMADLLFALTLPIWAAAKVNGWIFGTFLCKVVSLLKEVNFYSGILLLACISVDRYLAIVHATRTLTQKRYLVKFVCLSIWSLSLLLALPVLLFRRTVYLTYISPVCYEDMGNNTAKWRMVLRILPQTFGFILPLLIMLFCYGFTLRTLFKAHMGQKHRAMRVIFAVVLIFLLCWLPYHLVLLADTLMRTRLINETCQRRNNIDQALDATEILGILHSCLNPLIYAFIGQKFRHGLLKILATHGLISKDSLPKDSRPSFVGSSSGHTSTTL


What was measured:
Human 1to19 peptide = biological target: T1, Human 1to19 peptide; assay: ELISA, periplasmic extract on biotinylated peptide
Method: In another setup, periplasmic extracts were analyzed for binding to human 1 to 19 peptide by ELISA. MaxiSorb plates (Nunc, 430341) were coated for two hours with neutravidin followed by one hour blocking (PBS, 1% casein). Then 100 nM biotinylated human 1 to 19 peptide was added to these plates for one hour (PBS, 0.1% casein, 0.05% tween20) followed by one hour incubation with 10-fold dilutions of periplasmic extracts. Unbound periplasmic extracts were washed away (PBS supplemented with 0.05% tween20) and bound Nanobodies were detected using mouse anti-myc (Roche, 11667149001) followed by rabbit anti-mouse-HRP conjugate (Dakocytomation, P0260). Table 8 summarizes the ratios of the binding signals of anti-CXCR2Nanobodies over an irrelevant control Nanobody.

Human CXCR2 [1] = biological target: T2, Human CXCR2; assay: FACS, periplasmic extract vs FMAT Blue Gro-α
Method: Periplasmic extracts (as described above) were analyzed on FACS for competition with Gro-α in binding to human CXCR2. 2×10⁵ cells were incubated with a ½ dilution of periplasmic extracts in FACS buffer (PBS+10% fetal bovine serum (Sigma, F7524)) for 30 minutes at 4° C. Then, an equal volume of 6 nM of FMAT Blue-labeled human Gro-α in FACS buffer was added and incubation was continued for another 30 minutes at 4° C. in the dark. Cells were then washed three times in FACS buffer and finally resuspended in FACS buffer. Dead cells were stained with propidium iodide (Sigma, P4170). Samples were then analyzed on a FACSarray (BD Biosciences).

Human CXCR2 [2] = biological target: T2, Human CXCR2; assay: FACS competition vs 3 nM FMAT-Blue Gro-α
Method: (§1) Multivalent anti-CXCR2Nanobodies were titrated against 3 nM FMAT-Blue-labeled Gro-α in the FACS ligand competition assay on human and cynomolgus CXCR2 (Table 14). On human CXCR2, blocking potencies range between double digit nM and sub-nM whereas on cynomolgus CXCR2, they range between single and double digit nM.

Cynomolgus CXCR2 [3] = biological target: T3, Cynomolgus CXCR2; assay: FACS competition vs 3 nM FMAT-Blue Gro-α
Method: as §1

Human CXCR2 [4] = biological target: T2, Human CXCR2; assay: cell-based or functional assay
Human CXCR2 [5] = biological target: T2, Human CXCR2; assay: cell-based or functional assay; remark: listed apart in the source
Cynomolgus CXCR2 [6] = biological target: T3, Cynomolgus CXCR2; assay: cell-based or functional assay
Human CXCR2 [7] = biological target: T2, Human CXCR2; assay: cell-based or functional assay; remark: listed apart in the source
Cynomolgus CXCR2 [8] = biological target: T3, Cynomolgus CXCR2; assay: cell-based or functional assay
Human CXCR2 [9] = biological target: T2, Human CXCR2; assay: cell-based or functional assay; remark: listed apart in the source
Human CXCR2 [10] = biological target: T2, Human CXCR2; assay: FACS competition vs 3 nM FMAT-Blue Gro-α; remark: listed apart in the source
Method: as §1, with “Purified monovalent” for “Multivalent”, “10).” for “14).”

| ratio of binding signal relative to blank control (Human 1to19 peptide) | FACS Gro-α competition (% inhibition) (Human CXCR2 [1]) | % inhibition of max (Human CXCR2 [2]) | IC50 (Human CXCR2 [2]) | % inhibition of max (Cynomolgus CXCR2 [3]) | IC50 (Cynomolgus CXCR2 [3]) | [35S]GTPγS % inhibition of max (GRO-α) (Human CXCR2 [4]) | [35S]GTPγS IC50 (GRO-α) (Human CXCR2 [4]) | Human WBSC IC50 (rhGROα) (Human CXCR2 [5]) | Cynomologus WBSC IC50 (rhGROα) (Cynomolgus CXCR2 [6]) | FLIPR % inhibition of max (Human CXCR2 [7]) | FLIPR IC50 (GRO-α induced calcium release) (Human CXCR2 [7]) | FLIPR % inhibition of max (Cynomolgus CXCR2 [8]) | FLIPR IC50 (GRO-α induced calcium release) (Cynomolgus CXCR2 [8]) | other results | Binder |
| --- | --- | --- | --- | --- | --- | --- | --- | --- | --- | --- | --- | --- | --- | --- | --- |
| 1.7 ratio | 50.5% |  |  |  |  |  |  |  |  |  |  |  |  |  | 139H2 (VHH, Tested as periplasmic extract only; also called 139H02; not shown: C-terminal c-myc tag and His6 tag coded by the vector) VHH: EVQLVESGGGLVQAGGSLRLSCAASGRTFSNYAMGWFRQATGKEREFVAAINKSGGNTHYAGSVKGRFTISRDNAKNTVYLQMNSLKPRDTAVYYCAASRTNPKPDYWGQGTQVTVSS |
| 0.8 ratio | 75.8% |  |  |  |  |  |  |  |  |  |  |  |  |  | 159B10 (VHH, Tested as periplasmic extract only; not shown: C-terminal c-myc tag and His6 tag coded by the vector) VHH: EVQLVESGGGLVQPGGSLRLSCAASGRTFSSLSMGWFRQAPGKERAFVAALTRNGGYRYYADSVKGRFTISRDVAKKTLYLQMNSLKPEDTAVYYCAADSLSGSDYLGTNLDYWGQGTQVTVSS |
| 1.2 ratio | 55.8% |  |  |  |  |  |  |  |  |  |  |  |  |  | 137A8 (VHH, Tested as periplasmic extract only; also called 137A08; not shown: C-terminal c-myc tag and His6 tag coded by the vector) VHH: EVQLVESGGGLVQPGGSLRLSCAASGSTLAYYTVGWFRRAPGKEREGISCISSSDGSTYYADSVKGRFTISRDNAKNTVYLQMNSLKPEDTAVYYCAADRRTDCKKGRVGSGSWGQGTQVTVSS |
| 0.8 ratio | 56.8% |  |  |  |  |  |  |  |  |  |  |  |  |  | 139D5 (VHH, Tested as periplasmic extract only; also called 139D05; not shown: C-terminal c-myc tag and His6 tag coded by the vector) VHH: EVKLVESGGGLVQAGGSLRLSCALSGRIGSINAMGWYRQVSGQQRELVAVSRSGGSTDIADSVKGRFTISRDNGKNTVYLQMDSLKPEDTAVYYCYAHTSSYSNWRVYNNDYWGQGTQVTVSS |
|  |  | 100% | 0.65 nM | 99% | 2.2 nM | 100% | 1.01 nM | 0.345 nM | 0.42 nM | 100% | 17.9 nM | 100% | 4.46 nM | Human Chemotaxis IC50 (rhGROα) (Human CXCR2 [5]): 0.15 nM | CXCR20033 (bispecific antibody, Biparatopic: two VHH joined by a GlySer linker; also called 163E3-35GS-2B2; 163E3-2B2; not shown: C-terminal c-myc tag and His6 tag coded by pAX100) EVQLVESGGGLVQPGGSLRLSCVASGRIFSSNAMGWFRQAPGKEREFVAAITWRSGGSAYYADSAKGRFTISRDNAKNTVYLQMNSLKPEDTAVYYCAAGGSSWLSFPPDYWGQGTQVTVSSGGGGSGGGGSGGGGSGGGGSGGGGSGGGGSGGGGSEVQLVESGGELVQPGGSLRLSCAASGSILTINAMGWYRQAPGKQRELVVRRTRGGSTTYQDSVKGRFTISADIAKKTMYLQMNSLKPEDTAVYYCMLDDRGGVYWGQGTQVTVSS |
|  |  | 99.5% | 0.786 nM | 98.5% | 1.74 nM | 100% | 1.02 nM | 0.215 nM | 0.56 nM | 100% | 11.8 nM | 100% | 6.36 nM | [35S]GTPγS % inhibition of max (ENA-78) (Human CXCR2 [4]): 100%; [35S]GTPγS % inhibition of max (IL-8) (Human CXCR2 [4]): 100%; [35S]GTPγS IC50 (ENA-78) (Human CXCR2 [4]): 1.3 nM; [35S]GTPγS IC50 (IL-8) (Human CXCR2 [4]): 1.09 nM | CXCR20030 (other, Biparatopic: two VHH joined by a GlySer linker; also called 163D2-35GS-54B12; 163D2-54B12; not shown: C-terminal c-myc tag and His6 tag coded by pAX100) EVQLVESGGGLVQAGGSLRLSCAASGRTFSDYAMGWFRQAPGKEREFVAAITWNGGRVFYTASVKGRFTISRDNAKNTMYLQMNSLKPEDTAVYYCAADKDRRTDYLGHPVAYWGQGTQVTVSSGGGGSGGGGSGGGGSGGGGSGGGGSGGGGSGGGGSEVQLVESGGGLVQAGGSLTLSCAVSGSTFRINTMGWYRRAPGKQRELVAARDRGGYINYVDSVKGRFTVSRDNAKPTMYLQMNSLKPEDTAVYYCHAGTQDRTGRNFDRWGQGTQVTVSS |
|  |  | 100% | 0.8 nM | 99% | 2.55 nM | 100% | 0.995 nM | 0.29 nM | 0.44 nM | 100% | 11.8 nM | 100% | 9.47 nM | Human Chemotaxis IC50 (rhGROα) (Human CXCR2 [5]): 0.143 nM | CXCR20034 (bispecific antibody, Biparatopic: two VHH joined by a GlySer linker; also called 163D2-35GS-2B2; 163D2-2B2; not shown: C-terminal c-myc tag and His6 tag coded by pAX100) EVQLVESGGGLVQAGGSLRLSCAASGRTFSDYAMGWFRQAPGKEREFVAAITWNGGRVFYTASVKGRFTISRDNAKNTMYLQMNSLKPEDTAVYYCAADKDRRTDYLGHPVAYWGQGTQVTVSSGGGGSGGGGSGGGGSGGGGSGGGGSGGGGSGGGGSEVQLVESGGELVQPGGSLRLSCAASGSILTINAMGWYRQAPGKQRELVVRRTRGGSTTYQDSVKGRFTISADIAKKTMYLQMNSLKPEDTAVYYCMLDDRGGVYWGQGTQVTVSS |
| 1 ratio | 90.3% |  |  |  |  |  |  |  |  |  |  |  |  | FLIPR % inhibition max (Human CXCR2 [9]): 100%; FLIPR IC50 (GRO-α induced calcium release) (Human CXCR2 [9]): 6.71 nM; % inhibition of max (Human CXCR2 [10]): 93.5%; IC50 (Human CXCR2 [10]): 1.11 nM | 137B7 (VHH, Tested as periplasmic extract (pAX50) and as purified His6-tagged protein (pAX100); also called 137B07; not shown: C-terminal c-myc tag and His6 tag coded by the vector) VHH: EVQLVESGGGLVQPGGSVRLSCVASGIIFRLSALGWTRQGPGKAREWVAGINSDGTTNYADPVKGRFTISRDNAKNTIYLHMDMLKPEDTAVYYCASGKYRGQGTQVTVSS |
|  |  | 98.5% | 1.63 nM | 96% | 3.8 nM | 100% | 1.38 nM | 0.43 nM | 1.72 nM | 100% | 21.9 nM | 100% | 17 nM |  | CXCR20028 (other, Biparatopic: two VHH joined by a GlySer linker; also called 97A9-35GS-54B12; 97A9-54B12; not shown: C-terminal c-myc tag and His6 tag coded by pAX100) EVQLVESGGGLVQPGGSLRLSCVASGSIVRINTMGWYRQTPGKQRELVADITSGGNINYIDAVKGRFTISRDNTKNTVYLQMNSLKPEDTAVYYCNAEIVVLVGVWTQRARTGNYWGQGTQVTVSSGGGGSGGGGSGGGGSGGGGSGGGGSGGGGSGGGGSEVQLVESGGGLVQAGGSLTLSCAVSGSTFRINTMGWYRRAPGKQRELVAARDRGGYINYVDSVKGRFTVSRDNAKPTMYLQMNSLKPEDTAVYYCHAGTQDRTGRNFDRWGQGTQVTVSS |
| 1 ratio | 78.5% |  |  |  |  |  |  |  |  |  |  |  |  |  | 139A8 (VHH, Tested as periplasmic extract only; also called 139A08; not shown: C-terminal c-myc tag and His6 tag coded by the vector) VHH: EVQLVESGGGLVQAGGSLRLSCAASGRSFSRSAMGWLRQAPGKEREFVAGISWGGDNSYYADSVKGRFTISRDNAKNTVSLQMNSLKPQDTAVYYCAARYRGGAAVAGWEYWGQGTQVTVSS |
